# Assay results: patent US20200270325A1 (Merck Sharp & Dohme, published 2020)
# Numbered stars: 1 amine (or outer) side, 2 acyl side, 3 side chain; on linkers, the order of the positions; unused ones are H or OH. Square brackets hold non-standard residues; d marks the D form. Primed or numbered codes have the meaning given here. Side chains are listed from the residue outwards. Ends that are not written are not given here. * marks the point of attachment. Phe(4-CH2NH2) = NCc1ccc(C[C@H](N)C(=O)O)cc1; C18 diacid = O=C(O)CCCCCCCCCCCCCCCCC(=O)*; γGlu = O=C(O)[C@H](CCC(=O)[*:2])N[*:1]; Met(O2) = CS(=O)(=O)CC[C@H](N)C(=O)O; αMeD = C[C@](N)(CC(=O)O)C(=O)O; PEG2′ = not defined here; AEEA = NCCOCCOCC(=O)O; Aib = CC(C)(N)C(=O)O
# B1: TP679 (peptide)
# peptide: H[Aib]QGTFTSDYSKYLDARAAQ[Phe(4-CH2NH2)]([AEEA-AEEA-AEEA-γGlu-C18 diacid])FVQWLLDT-NH2
# modifications: N-terminus assumed
# SMILES: CC(C)C[C@H](NC(=O)[C@H](Cc1ccc(O)cc1)NC(=O)[C@H](CCCCN)NC(=O)[C@H](CO)NC(=O)[C@H](Cc1ccc(O)cc1)NC(=O)[C@H](CC(=O)O)NC(=O)[C@H](CO)NC(=O)[C@@H](NC(=O)[C@H](Cc1ccccc1)NC(=O)[C@@H](NC(=O)CNC(=O)[C@H](CCC(N)=O)NC(=O)C(C)(C)NC(=O)[C@@H](N)Cc1c[nH]cn1)[C@@H](C)O)[C@@H](C)O)C(=O)N[C@@H](CC(=O)O)C(=O)N[C@@H](C)C(=O)N[C@@H](CCCNC(=N)N)C(=O)N[C@@H](C)C(=O)N[C@@H](C)C(=O)N[C@@H](CCC(N)=O)C(=O)N[C@@H](Cc1ccc(CNC(=O)COCCOCCNC(=O)COCCOCCNC(=O)COCCOCCNC(=O)CC[C@H](NC(=O)CCCCCCCCCCCCCCCCC(=O)O)C(=O)O)cc1)C(=O)N[C@@H](Cc1ccccc1)C(=O)N[C@H](C(=O)N[C@@H](CCC(N)=O)C(=O)N[C@@H](Cc1c[nH]c2ccccc12)C(=O)N[C@@H](CC(C)C)C(=O)N[C@@H](CC(C)C)C(=O)N[C@@H](CC(=O)O)C(=O)N[C@H](C(N)=O)[C@@H](C)O)C(C)C
# B2: TP678 (peptide)
# peptide: H[Aib]QGTFTSDYSKYLDARAA[Phe(4-CH2NH2)]([AEEA-AEEA-AEEA-γGlu-C18 diacid])DFVQWLLDT-NH2
# modifications: N-terminus assumed
# SMILES: CC(C)C[C@H](NC(=O)[C@H](Cc1ccc(O)cc1)NC(=O)[C@H](CCCCN)NC(=O)[C@H](CO)NC(=O)[C@H](Cc1ccc(O)cc1)NC(=O)[C@H](CC(=O)O)NC(=O)[C@H](CO)NC(=O)[C@@H](NC(=O)[C@H](Cc1ccccc1)NC(=O)[C@@H](NC(=O)CNC(=O)[C@H](CCC(N)=O)NC(=O)C(C)(C)NC(=O)[C@@H](N)Cc1c[nH]cn1)[C@@H](C)O)[C@@H](C)O)C(=O)N[C@@H](CC(=O)O)C(=O)N[C@@H](C)C(=O)N[C@@H](CCCNC(=N)N)C(=O)N[C@@H](C)C(=O)N[C@@H](C)C(=O)N[C@@H](Cc1ccc(CNC(=O)COCCOCCNC(=O)COCCOCCNC(=O)COCCOCCNC(=O)CC[C@H](NC(=O)CCCCCCCCCCCCCCCCC(=O)O)C(=O)O)cc1)C(=O)N[C@@H](CC(=O)O)C(=O)N[C@@H](Cc1ccccc1)C(=O)N[C@H](C(=O)N[C@@H](CCC(N)=O)C(=O)N[C@@H](Cc1c[nH]c2ccccc12)C(=O)N[C@@H](CC(C)C)C(=O)N[C@@H](CC(C)C)C(=O)N[C@@H](CC(=O)O)C(=O)N[C@H](C(N)=O)[C@@H](C)O)C(C)C
# B3: TP676 (peptide)
# peptide: H[Aib]QGTFTSDYSKYLDARAAK([AEEA-AEEA-AEEA-γGlu-C18 diacid])DFVQWL[Met(O2)]DT-NH2
# modifications: N-terminus assumed
# SMILES: CC(C)C[C@H](NC(=O)[C@H](Cc1ccc(O)cc1)NC(=O)[C@H](CCCCN)NC(=O)[C@H](CO)NC(=O)[C@H](Cc1ccc(O)cc1)NC(=O)[C@H](CC(=O)O)NC(=O)[C@H](CO)NC(=O)[C@@H](NC(=O)[C@H](Cc1ccccc1)NC(=O)[C@@H](NC(=O)CNC(=O)[C@H](CCC(N)=O)NC(=O)C(C)(C)NC(=O)[C@@H](N)Cc1c[nH]cn1)[C@@H](C)O)[C@@H](C)O)C(=O)N[C@@H](CC(=O)O)C(=O)N[C@@H](C)C(=O)N[C@@H](CCCNC(=N)N)C(=O)N[C@@H](C)C(=O)N[C@@H](C)C(=O)N[C@@H](CCCCNC(=O)COCCOCCNC(=O)COCCOCCNC(=O)COCCOCCNC(=O)CC[C@H](NC(=O)CCCCCCCCCCCCCCCCC(=O)O)C(=O)O)C(=O)N[C@@H](CC(=O)O)C(=O)N[C@@H](Cc1ccccc1)C(=O)N[C@H](C(=O)N[C@@H](CCC(N)=O)C(=O)N[C@@H](Cc1c[nH]c2ccccc12)C(=O)N[C@@H](CC(C)C)C(=O)N[C@@H](CCS(C)(=O)=O)C(=O)N[C@@H](CC(=O)O)C(=O)N[C@H](C(N)=O)[C@@H](C)O)C(C)C
# B4: TP682 (peptide)
# peptide: H[Aib]QGTFTSDYSKYLD[Aib]RAAQDFVQWLL[Phe(4-CH2NH2)]([AEEA-AEEA-γGlu-C18 diacid])TK-{γGlu-NH2}
# B5: TP680 (peptide)
# peptide: H[Aib]QGTFTSDYSKYLDARAAQDFVK([PEG2′-PEG2′-PEG2′-γGlu-C18‑OH])WL[Met(O2)]DT-NH2
# B6: TP683 (peptide)
# peptide: H[Aib]QGTFTSDYSKYLD[Aib]RAAQDFVQWLLK([AEEA-AEEA-γGlu-C18 diacid])TK-{γGlu-NH2}
# B7: TP681 (peptide)
# peptide: H[Aib]QGTFTSDYSKYLDARAAQK([AEEA-AEEA-γGlu-C18 diacid])FVQWL[Met(O2)][αMeD]T-NH2
# modifications: N-terminus assumed
# SMILES: CC(C)C[C@H](NC(=O)[C@H](Cc1ccc(O)cc1)NC(=O)[C@H](CCCCN)NC(=O)[C@H](CO)NC(=O)[C@H](Cc1ccc(O)cc1)NC(=O)[C@H](CC(=O)O)NC(=O)[C@H](CO)NC(=O)[C@@H](NC(=O)[C@H](Cc1ccccc1)NC(=O)[C@@H](NC(=O)CNC(=O)[C@H](CCC(N)=O)NC(=O)C(C)(C)NC(=O)[C@@H](N)Cc1c[nH]cn1)[C@@H](C)O)[C@@H](C)O)C(=O)N[C@@H](CC(=O)O)C(=O)N[C@@H](C)C(=O)N[C@@H](CCCNC(=N)N)C(=O)N[C@@H](C)C(=O)N[C@@H](C)C(=O)N[C@@H](CCC(N)=O)C(=O)N[C@@H](CCCCNC(=O)COCCOCCNC(=O)COCCOCCNC(=O)CC[C@H](NC(=O)CCCCCCCCCCCCCCCCC(=O)O)C(=O)O)C(=O)N[C@@H](Cc1ccccc1)C(=O)N[C@H](C(=O)N[C@@H](CCC(N)=O)C(=O)N[C@@H](Cc1c[nH]c2ccccc12)C(=O)N[C@@H](CC(C)C)C(=O)N[C@@H](CCS(C)(=O)=O)C(=O)N[C@@](C)(CC(=O)O)C(=O)N[C@H](C(N)=O)[C@@H](C)O)C(C)C
# B8: TP699 (peptide)
# peptide: H[Aib]QGTFTSEYSKKLDARAAQDFVK([AEEA-AEEA-γGlu-C18 diacid])WL[Met(O2)]DT-NH2
# modifications: N-terminus assumed
# SMILES: CC(C)C[C@H](NC(=O)[C@H](CCCCN)NC(=O)[C@H](CCCCN)NC(=O)[C@H](CO)NC(=O)[C@H](Cc1ccc(O)cc1)NC(=O)[C@H](CCC(=O)O)NC(=O)[C@H](CO)NC(=O)[C@@H](NC(=O)[C@H](Cc1ccccc1)NC(=O)[C@@H](NC(=O)CNC(=O)[C@H](CCC(N)=O)NC(=O)C(C)(C)NC(=O)[C@@H](N)Cc1c[nH]cn1)[C@@H](C)O)[C@@H](C)O)C(=O)N[C@@H](CC(=O)O)C(=O)N[C@@H](C)C(=O)N[C@@H](CCCNC(=N)N)C(=O)N[C@@H](C)C(=O)N[C@@H](C)C(=O)N[C@@H](CCC(N)=O)C(=O)N[C@@H](CC(=O)O)C(=O)N[C@@H](Cc1ccccc1)C(=O)N[C@H](C(=O)N[C@@H](CCCCNC(=O)COCCOCCNC(=O)COCCOCCNC(=O)CC[C@H](NC(=O)CCCCCCCCCCCCCCCCC(=O)O)C(=O)O)C(=O)N[C@@H](Cc1c[nH]c2ccccc12)C(=O)N[C@@H](CC(C)C)C(=O)N[C@@H](CCS(C)(=O)=O)C(=O)N[C@@H](CC(=O)O)C(=O)N[C@H](C(N)=O)[C@@H](C)O)C(C)C
# B9: TP677 (peptide)
# peptide: H[Aib]QGTFTSDYSKYLDARAAK([AEEA-AEEA-AEEA-γGlu-C18 diacid])DFVQWL[Met(O2)][αMeD]T-NH2
# modifications: N-terminus assumed
# SMILES: CC(C)C[C@H](NC(=O)[C@H](Cc1ccc(O)cc1)NC(=O)[C@H](CCCCN)NC(=O)[C@H](CO)NC(=O)[C@H](Cc1ccc(O)cc1)NC(=O)[C@H](CC(=O)O)NC(=O)[C@H](CO)NC(=O)[C@@H](NC(=O)[C@H](Cc1ccccc1)NC(=O)[C@@H](NC(=O)CNC(=O)[C@H](CCC(N)=O)NC(=O)C(C)(C)NC(=O)[C@@H](N)Cc1c[nH]cn1)[C@@H](C)O)[C@@H](C)O)C(=O)N[C@@H](CC(=O)O)C(=O)N[C@@H](C)C(=O)N[C@@H](CCCNC(=N)N)C(=O)N[C@@H](C)C(=O)N[C@@H](C)C(=O)N[C@@H](CCCCNC(=O)COCCOCCNC(=O)COCCOCCNC(=O)COCCOCCNC(=O)CC[C@H](NC(=O)CCCCCCCCCCCCCCCCC(=O)O)C(=O)O)C(=O)N[C@@H](CC(=O)O)C(=O)N[C@@H](Cc1ccccc1)C(=O)N[C@H](C(=O)N[C@@H](CCC(N)=O)C(=O)N[C@@H](Cc1c[nH]c2ccccc12)C(=O)N[C@@H](CC(C)C)C(=O)N[C@@H](CCS(C)(=O)=O)C(=O)N[C@@](C)(CC(=O)O)C(=O)N[C@H](C(N)=O)[C@@H](C)O)C(C)C
# B10: TP582 (peptide)
# peptide: H[Aib]QGTFTSD[Phe(4-CH2NH2)]([AEEA-AEEA-γGlu-C20‑OH])SKYLD[Aib]RAAQDFVQWLLATK-{γGlu-NH2}
# B11: TP693 (peptide)
# peptide: HXQGTFTSDXSKYLDARAAQDFVXWLXDT
# modifications: D-Ser (s) at 2; pAF(γEγEC16) at 10; K(PEG2PEG2γEC16-OH) at 24; L-methionine sulphone (2) at 27; C-terminal amide
# Target: human GLP-1 receptor (GLP1R) (human, UniProt P43220 24-463)
# Experiment: cell-based or functional assay
row,Binder,GLP1R EC50 human
1,B1,180 pM
2,B2,910 pM
3,B3,260 pM
4,B4,2310 pM
5,B5,190 pM
6,B6,620 pM
7,B7,150 pM
8,B8,> 19800 pM
9,B9,760 pM
10,B10,2570 pM
11,B11,> 4900 pM

# Target: human Glucagon receptor (GCGR) (human, UniProt P47871 26-477)
# Experiment: cell-based or functional assay
# Sequence of human Glucagon receptor (GCGR) (P47871 26-477): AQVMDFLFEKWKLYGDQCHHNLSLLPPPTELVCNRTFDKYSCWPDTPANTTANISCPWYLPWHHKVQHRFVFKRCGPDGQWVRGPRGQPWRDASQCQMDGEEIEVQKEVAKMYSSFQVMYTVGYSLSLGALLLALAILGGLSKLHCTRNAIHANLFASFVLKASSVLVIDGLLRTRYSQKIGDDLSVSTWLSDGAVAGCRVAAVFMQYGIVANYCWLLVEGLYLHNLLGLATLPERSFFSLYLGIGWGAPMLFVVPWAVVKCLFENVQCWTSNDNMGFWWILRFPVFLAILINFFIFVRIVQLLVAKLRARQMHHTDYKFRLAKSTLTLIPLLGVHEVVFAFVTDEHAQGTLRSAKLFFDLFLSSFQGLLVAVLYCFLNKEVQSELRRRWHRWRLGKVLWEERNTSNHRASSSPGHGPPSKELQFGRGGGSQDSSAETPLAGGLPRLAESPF
row,Binder,GCGR EC50 human
1,B1,130 pM
2,B2,250 pM
3,B3,820 pM
4,B4,2350 pM
5,B5,590 pM
6,B6,4970 pM
7,B7,270 pM
8,B8,> 19800 pM
9,B9,1420 pM
10,B10,4950 pM
11,B11,1100 pM
